Laboratory results taken from IntAct's records for PubMed 17377532.

B1: Forkhead box protein P3 (Mus musculus), Q99JB6 (parent)
chain: MPNPRPAKPMAPSLALGPSPGVLPSWKTAPKGSELLGTRGSGGPFQGRDLRSGAHTSSSLNPLPPSQLQLPTVPLVMVAPSGARLGPSPHLQALLQDRPHFMHQLSTVDAHAQTPVLQVRPLDNPAMISLPPPSAATGVFSLKARPGLPPGINVASLEWVSREPALLCTFPRSGTPRKDSNLLAAPQGSYPLLANGVCKWPGCEKVFEEPEEFLKHCQADHLLDEKGKAQCLLQREVVQSLEQQLELEKEKLGAMQAHLAGKMALAKAPSVASMDKSSCCIVATSTQGSVLPAWSAPREAPDGGLFAVRRHLWGSHGNSSFPEFFHNMDYFKYHNMRPPFTYATLIRWAILEAPERQRTLNEIYHWFTRMFAYFRNHPATWKNAIRHNLSLHKCFVRVESEKGAVWTVDEFEFRKKRSQRPNKCSNPCP

Variants of: B1
Conditions: with runx1_mouse Runx1, Q03347
Sequence of runx1_mouse Runx1, Q03347 (Q03347 whole entry): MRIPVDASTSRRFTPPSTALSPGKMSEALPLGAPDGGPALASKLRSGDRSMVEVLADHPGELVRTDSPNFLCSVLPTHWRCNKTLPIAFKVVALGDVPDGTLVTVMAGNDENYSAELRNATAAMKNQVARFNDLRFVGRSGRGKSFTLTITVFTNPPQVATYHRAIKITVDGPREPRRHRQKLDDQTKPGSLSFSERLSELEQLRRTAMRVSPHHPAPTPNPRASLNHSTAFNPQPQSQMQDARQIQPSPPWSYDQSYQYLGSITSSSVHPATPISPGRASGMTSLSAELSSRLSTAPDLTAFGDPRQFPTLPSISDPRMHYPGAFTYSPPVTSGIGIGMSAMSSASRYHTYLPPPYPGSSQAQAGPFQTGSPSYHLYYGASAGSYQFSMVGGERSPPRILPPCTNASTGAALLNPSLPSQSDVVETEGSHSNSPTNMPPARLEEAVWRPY

effect of a mutation on the interaction | Variant
disrupting interaction strength | MPNPRPAKPMAPSLALGPSPGVLPSWKTAPKGSELLGTRGSGGPFQGRDLRSGAHTSSSLNPLPPSQLQLPTVPLVMVAPSGARLGPSPHLQALLQDRPHFMHQLSTVDAHAQTPVLQVRPLDNPAMISLPPPSAATGVFSLKARPGLPPGINVASLEWVSREPALLCTFPRSGTPRKDSNLLAAPQGSYPLLANGVCKWPGCEKVFEEPEEFLKHCQADHLLDEKGKAQCLLQREVVQSLEQQLELEKEKLGAMQAHLAGKMALAKAPSVASMDKSSCCIVATSTQGSVLPAWSAPREAPDGGLFAVRRHLWGSHGNSSFPEFFHNMVHFLYHNMRPPFTYATLIRWAILEAPERQRTLNEIYHWFTRMFAYFRNHPATWKNAIRHNLSLHKCFVRVESEKGAVWTVDEFEFRKKRSQRPNKCSNPCP [D329V;Y330H;K332L]
decreasing interaction strength | MPNPRPAKPMAPSLALGPSPGVLPSWKTAPKGSELLGTRGSGGPFQGRDLRSGAHTSSSLNPLPPSQLQLPTVPLVMVAPSGARLGPSPHLQALLQDRPHFMHQLSTVDAHAQTPVLQVRPLDNPAMISLPPPSAATGVFSLKARPGLPPGINVASLEWVSREPALLCTFPRSGTPRKDSNLLAAPQGSYPLLANGVCKWPGCEKVFEEPEEFLKHCQADHLLDEKGKAQCLLQREVVQSLEQQLELEKEKLGAMQAHLAGKMALAKAPSVASMDKSSCCIVATSTQGSVLPAWSAPREAPDGGLFAVRRHLWGSHGNSSFPEFFHNMVHFKYHNMRPPFTYATLIRWAILEAPERQRTLNEIYHWFTRMFAYFRNHPATWKNAIRHNLSLHKCFVRVESEKGAVWTVDEFEFRKKRSQRPNKCSNPCP [D329V;Y330H]
